Data on ten molecules can be found in patent publication US20240254246A1 (PROMETHEUS BIOSCIENCES, published 2024).

Assay [1] has as its target T1, cynomolgus CD30L expressed on HEK293 cells (cynomolgus, UniProt A0A7N9CVX7 1-234).
T1 sequence: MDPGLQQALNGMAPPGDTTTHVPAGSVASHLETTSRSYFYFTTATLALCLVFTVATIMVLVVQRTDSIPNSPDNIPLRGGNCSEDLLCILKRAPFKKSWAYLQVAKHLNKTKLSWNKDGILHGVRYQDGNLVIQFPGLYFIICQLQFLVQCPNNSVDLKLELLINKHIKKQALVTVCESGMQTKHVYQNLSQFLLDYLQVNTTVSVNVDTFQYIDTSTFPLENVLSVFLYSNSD
The experiment in a line: cell-based or functional assay.

The target of assay [2] is T2, human CD30L expressed on cells (human, UniProt P32971 1-234).
T2 sequence (looked up): T1 sequence with T19A, T20M, E32G, F41L, I75V, R78K, V204I, V227I
The experiment in a line: cell-based or functional assay.

In assay [3] the target is T2, human CD30L expressed on cells. Description: flow cytometry, B16-huCD30L cells.
Description: Anti-CD30L antibody binding to a CD30L target was determined by flow cytometry, using B16 cells transfected to express human CD30L (compared to non-transfected B16), and using HEK293 cells transfected to express cynomolgus CD30L (compared to non-transfected HEK293). […] Cell surface bound antibodies were detected using a fluorescently labeled anti-human-IgG or anti-mouse IgG, depending on the Fc portion of the antibodies. After incubation with the secondary antibody, the cells were washed, fixed in a paraformaldehyde solution, and analyzed by flow cytometry to detect antibody binding.
For assay [4] the target is unchanged. Description: flow cytometry, blocking of huCD30 binding to B16-huCD30L cells.
Assay [5] addresses T3, recombinant cynomolgus CD30L protein (cynomolgus, UniProt A0A7N9CVX7 63-234).
T3 construct: Recombinant protein used in ELISA; also called cyCD30L
T3 sequence: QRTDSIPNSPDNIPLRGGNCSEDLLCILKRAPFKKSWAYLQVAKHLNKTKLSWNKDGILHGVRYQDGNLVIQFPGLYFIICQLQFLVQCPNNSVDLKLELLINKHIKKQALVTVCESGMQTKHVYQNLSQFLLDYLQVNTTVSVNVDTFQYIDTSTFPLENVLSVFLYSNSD
Description: ELISA, 1/50 dil.

The target in assay [6] is T3, recombinant cynomolgus CD30L protein. The experiment in a line: ELISA, 1/5000 dil.
The target is the same in assay [7]. Description: ELISA, 1/500 dil.
For assay [8], the target named is T4, recombinant human CD30L protein (human, UniProt P32971 63-234).
T4 construct: Recombinant protein used in ELISA; also called huCD30L
T4 sequence (looked up): T3 sequence with I13V, R16K, V142I, V165I
The experiment in a line: ELISA, CD30 competitor, 1/10 dil.

Assay [9] addresses T4, recombinant human CD30L protein. The experiment in a line: ELISA, CD30 competitor, 1/100 dil.
Assay [10] has the same target. The experiment in a line: ELISA, CD30 competitor, 1/1000 dil.
For assay [11] the target is unchanged. The experiment in a line: ELISA, CD30 competitor, undil.
Assay [12] addresses T5, recombinant human CD30L protein (human, UniProt P32971 63-234).
T5 construct: also called rhCD30L; huCD30L (ELISA)
T5 sequence (looked up): T3 sequence with I13V, R16K, V142I, V165I
Description: ELISA, huCD30L, 1/500 dil.

The target in assay [13] is T5, recombinant human CD30L protein. Description: ELISA, huCD30L, 1/50 dil.
For assay [14] the target is unchanged. The experiment in a line: ELISA, huCD30L, 1/5000 dil.
Assay [15] addresses T6, cynomolgus CD30L expressed on cells (cynomolgus, UniProt A0A7N9CVX7 1-234).
T6 construct: whole, on cells; also called cyCD30L; HEK293-cyCD30L
T6 sequence: T1 sequence
The experiment in a line: flow cytometry, cyCD30L cells, 1/50 dil.

Assay [16] deals with T7, human CD30L expressed on cells (human, UniProt P32971 1-234).
T7 construct: also called huCD30L; B16-huCD30L
T7 sequence: T1 sequence with T19A, T20M, E32G, F41L, I75V, R78K, V204I, V227I
The experiment in a line: flow cytometry, huCD30L cells, 1/50 dil.

Assay [17] deals with T8, human CD30L expressed on B16 cells (human, UniProt P32971 1-234).
T8 construct: whole, on cells; B16 cell line transfected to express human CD30L; also called B16-huCD30L; B16-rhCD30L
T8 sequence (looked up): T1 sequence with T19A, T20M, E32G, F41L, I75V, R78K, V204I, V227I
The experiment in a line: flow cytometry, binding to B16-rhCD30L cells.

Assay [18] addresses T8, human CD30L expressed on B16 cells. Description: cell-based or functional assay.
For assay [19], the target named is T9, cynomolgus CD30L expressed on HEK293 cells (cynomolgus, UniProt A0A7N9CVX7 1-234).
T9 sequence: T1 sequence
The experiment in a line: cell-based or functional assay. This is another data set of the same source.

In assay [20] the target is T9, cynomolgus CD30L expressed on HEK293 …. Description: flow cytometry, binding to HEK293-cyCD30L cells.
Assay [21] addresses T8, human CD30L expressed on B16 cells. The experiment in a line: flow cytometry, blocking of CD30-Fc on B16-huCD30L cells; competitor CD30-Fc.
Assay [22] has as its target T9, cynomolgus CD30L expressed on HEK293 …. Description: flow cytometry, blocking of CD30-Fc on HEK293-cyCD30L cells; competitor CD30-Fc.

Residue numbers refer to the chain shown, from its start. Like-named read-outs stand apart in the source and are kept apart here.

B1: Clone 1, Mouse IgG (antibody, V domains shown)
VH: QVQLQESGPGLVKPSETLSLTCTVSGGSISGYYWSWIRQPPVKGLEWIGYIFYSGYTKYNPSLKSRVTISVDTSKNQFSLKLSSVTAADTAVYYCARDRWDFDYWGQGALVTVSS
VL: AIQMTQSPSYLSASVGDRVTIACRASQGIRNNLGWYQQKPGKAPKLLIYAESSLQSGVPSRFSGSGSGTDFTLTISSLQPEDFATYYCLQDFNYPYTFGQGTKLEIK
notes: Mouse IgG format
For the molecule B1, in assay [1], the “Inhibition of IL-8 release in a dual cell assay (HEK293-cyCD30L cells + K299 cells) IC50” value came to 0.55 nM. For the same molecule, the “Inhibition of IL-8 release in a dual cell assay (B16-huCD30L cells + K299 cells) IC50” value in assay [2] was determined as 1.99 nM. In addition, the EC50 in assay [3] came out at 1.95 nM. This molecule gave an IC50 in assay [4] of 3.06 nM.

B2: Clone 3 (antibody, V domains shown)
VH: B1 VH
VL: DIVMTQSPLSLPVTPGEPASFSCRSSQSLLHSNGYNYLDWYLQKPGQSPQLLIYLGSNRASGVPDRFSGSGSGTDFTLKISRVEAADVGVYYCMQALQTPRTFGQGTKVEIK
notes: Hybridoma screening sample; also called CLONE_3 (parental)
For B2, the “Elisa Binding (OD)” value in [5] came to 3.2 OD; in assay [6], 0.552 OD; in assay [7], 2.35 OD. For the same molecule, the “% inhibition” value worked out at 95% in assay [8], 17% in [9], 3% in assay [10] and 98% in assay [11].

B3: anti-CD30L clone 3 (antibody, V domains shown)
VH: B1 VH
VL: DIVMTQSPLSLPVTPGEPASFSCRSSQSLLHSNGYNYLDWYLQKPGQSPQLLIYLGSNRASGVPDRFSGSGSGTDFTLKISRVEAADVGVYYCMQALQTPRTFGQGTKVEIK
In the case of B3, the figures for the OD in [12], in assay [13] and in assay [14] were 2.54 OD, 3.5 OD and 0.662 OD, respectively. Besides, the MFI was determined as 72.4 MFI in assay [15] and 153 MFI in assay [16].

B4: Clone 1, Human IgG1 (antibody, V domains shown)
VH: B1 VH
VL: B1 VL
notes: Human IgG1 format
As to B4, in assay [1], the “Inhibition of IL-8 release in a dual cell assay (HEK293-cyCD30L cells + K299 cells) IC50” value came out at 0.22 nM. The “Inhibition of IL-8 release in a dual cell assay (B16-huCD30L cells + K299 cells) IC50” value in assay [2] came out at 1.1 nM. In assay [3], this molecule returned a concentration giving a half-maximal response (EC50) of 1.41 nM. Moreover, the half-maximal inhibitory concentration (IC50) in [4] is 1.35 nM.

B5: anti-CD30L clone 1 (antibody, V domains shown)
VH: B1 VH
VL: B1 VL
notes: From mice with humanized immunoglobulin locus; elsewhere tested as mouse IgG and human IgG1; also called clone 1 parental
As to B5, the OD worked out at 3.02 OD in assay [12], 3.59 OD in [13] and 1.28 OD in assay [14]. The results for the MFI in assay [15] and in assay [16] were 77.3 MFI and 208 MFI, respectively.

B6: anti-CD30L Reference 1 antibody (antibody, human IgG1, lambda, V domains shown)
VH: QVQLQESGPGLVKPSETLSLTCTVSGGSISSYIWSWIRQPAGKGLEWIGRIYASGNTNYNPSLKSRVTISVDTSKNQFSLKLSSMTAADTAVYYCARDYRVAGTYYYYYGLDVWGQGTTVTVSS
VL: QSALTQPASVSGSPGQSITISCTGTSSDVGVYDYVSWYQQHPGKAPKLMIYEVSNRPSGVSNRFSGSKSGNTASLTISGLQTEDEADYYCSSYTSRSTWVFGGGTKLTVLG
For B6, the EC50 in assay [17] came to 1.12 nM; in [20], 0.56 nM. Also, the “Inhibition of IL-8 release in a dual cell assay (B16-huCD30L cells + K299 cells) IC50” value in [18] is 1.61 nM. Moreover, in [19], the “Inhibition of IL-8 release in a dual cell assay (HEK293-cyCD30L cells + K299 cells) IC50” value came to 0.79 nM. The IC50 in assay [21] was 1.84 nM; in assay [22], 0.73 nM.

B7: anti-CD30L clone 4 (antibody, V domains shown)
VH: QVQLVESGGGVVQPGRSLRLSCAASGFPFSSYGMHWVRQAPGKGLEWVTFIWFDGNNKDYADSVKGRFSVSRDNSKNTLYLQMNSLRADDTAVYYCARNGVYYGSGAYVDYWGQGTLVTVSS
VL: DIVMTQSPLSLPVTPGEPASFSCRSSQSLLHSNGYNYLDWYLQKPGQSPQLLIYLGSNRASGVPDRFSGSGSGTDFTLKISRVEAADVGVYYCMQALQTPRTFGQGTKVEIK
For the molecule B7, the results for the OD in assay [12], in assay [13] and in assay [14] were 2.65 OD, 3.08 OD and 0.68 OD, respectively. Moreover, the MFI was 67.8 MFI in assay [15] and 151 MFI in assay [16].

B8: Clone 2, Mouse IgG (antibody, V domains shown)
VH: EVQLVESGGGLVQPGRSLRLSCAASGFNFDDYAMHWVRQAPGKGLEWVSGISWRSGNIGYAGSVKGRFTISRDNAKNSLYLQMNSLRPEDSALYYCAKDKGIGFNWNYEGFDYWGQGTLVTVSS
VL: DIQMTQSPSSLSASVGDRVTITCRASQGISNHLAWFQQKPGKAPKSLIYAASSLQSGVPSKFSGSGSGTDFTLTISSLQPEDFATYYCQQYVTYPLTFGGGTKVEIK
notes: Mouse IgG format
Regarding B8, in [1], the “Inhibition of IL-8 release in a dual cell assay (HEK293-cyCD30L cells + K299 cells) IC50” value worked out at 0.46 nM. Moreover, the “Inhibition of IL-8 release in a dual cell assay (B16-huCD30L cells + K299 cells) IC50” value in assay [2] amounted to 1.2 nM. In assay [3], the response was half-maximal at 1.21 nM (EC50). The molecule further had an IC50 in assay [4] of 1.84 nM.

B9: anti-CD30L clone 2 (antibody, V domains shown)
VH: B8 VH
VL: B8 VL
notes: From mice with humanized immunoglobulin locus; elsewhere tested as mouse IgG and human IgG1; also called clone 2 parental
Take B9: the OD was 1.71 OD in [12], 2.15 OD in assay [13] and 0.565 OD in assay [14]. The MFI in assay [15] was determined as 57.6 MFI; in assay [16], 280 MFI.

B10: Clone 2, Human IgG1 (antibody, V domains shown)
VH: B8 VH
VL: B8 VL
notes: Human IgG1 format
As for B10, in assay [1], the “Inhibition of IL-8 release in a dual cell assay (HEK293-cyCD30L cells + K299 cells) IC50” value is 0.24 nM. The “Inhibition of IL-8 release in a dual cell assay (B16-huCD30L cells + K299 cells) IC50” value in [2] came to 0.6 nM. This molecule gave an EC50 in assay [3] of 0.81 nM. This molecule returned a half-inhibitory concentration (IC50) in assay [4] of 0.86 nM.
